From the supplement of paper PMC9732359
± gives the uncertainty stated by the source.

assay: protein stability index of a GFP-peptide fusion (yeast GPS) (PSI 1-4); higher = more stable; sorted into four equal gates, so the index is relative within each strain; settings: pdr5∆
Summary of the method: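 Tiled yeast protein peptides of 17 residues were each joined downstream of GFP, on plasmids that also express Cherry. The pooled library was maintained in yeast, and mid-log cultures in leucine-free medium were sorted into four equal gates on the GFP/Cherry ratio. Plasmids from every gate were amplified by PCR and sequenced on Illumina, with barcodes linking reads to strains. The protein stability index of a peptide is its gate-number-weighted read frequency summed over the gates.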

Sequence | protein stability index
DPSMDPELAMALRLSME [RPN10] | 3.18 ± 0.05
DQCKKQRRCLHCGALNG [RPO31] | 2.71 ± 0.18
DQEIVIQQLHSVLNPFL [ISW2] | 2.09 ± 0.042
DQITKMKDRLVEWNDQV [RPN9] | 3.05 ± 0.099
DQLDSEAASITRKSLNN [ECM29] | 2.91 ± 0.1
DQPQSSEAKRTKFSNPA [BRR2] | 2.65 ± 0.068
DQTNHIESDSILNLLNI [ECM29] | 3.04 ± 0.072
DRAQNSYQPMYQRPMQV [SSN3] | 1.73 ± 0.057
DRGLSIKLNGSTLLCTD [SNU114] | 2.76 ± 0.08
DRIIHTWRTQLAASEIG [ECM29] | 1.84 ± 0.06
DRKIQGWLGALTMANLP [ARP7] | 3 ± 0.063
DRRAQRVAEKRDALLKE [RPL19A] | 3.25 ± 0.097
DRVQQDSEDEDSMKDTT [YML031W/NDC1] | 3.22 ± 0.16
DSAKEWPQSKNCEYEDP [RPB3] | 3.13 ± 0.13
DSEIEISSEKLLTLTNA [RPP1A] | 2.92 ± 0.073
DSHKRIPDMSKNVELGW [SNU114] | 3.28 ± 0.11
DSIDLAPNTLTNILISP [YML103C/NUP188] | 1.87 ± 0.081
DSIPRDVAYLLKSESAT [YGL172W/NUP49] | 3.11 ± 0.079
DSLKLNSKPVELKPVSL [YJL041W/NSP1] | 2.79 ± 0.07
DSLSVPKVSAGDSGISP [SIR4] | 3.24 ± 0.11
DSTIGNSKVDMKYDIFA [IRR1] | 2.78 ± 0.082
DSTLILEQLAQHTTESD [RPB2] | 2.67 ± 0.055
DTDNECVAAWGVCNHAF [HRT1] | 3.3 ± 0.059
DTDSKPSSQSQNDTPMF [YLR018C/POM34] | 3.17 ± 0.048
DTIATSATPNAAAFSQQ [GAL11] | 2.92 ± 0.064
DTLDSKSNGSSDDDNIG [ISW2] | 3.23 ± 0.074

Sequence | protein stability index
DTRITPSKVSKIDSHVV [PRE6] | 3.09 ± 0.064
DTTFSDFKEVEDFLHFI [SRB4] | 2.09 ± 0.05
DVCKTRFNHLVTRLFFI [YML031W/NDC1] | 1.53 ± 0.039
DVEVDDDFTNELKAELD [SEM1] | 3.55 ± 0.11
DVKFPSNTTTQIQFTPL [SMC3] | 2.64 ± 0.15
DVKKPFSFGTSQPNNTP [YLR335W/NUP2] | 2.34 ± 0.083
DVLKSQANTEPENITKR [MCD1] | 3.02 ± 0.083
DVNIIGKDRIAINVFPE [RPO31] | 3.05 ± 0.12
DVNTNANANANATANAT [SNF11] | 3.27 ± 0.081
DVQARRQFVSNVRSVIR [RPP1] | 2.5 ± 0.12
DVVAKLEAKRKVSSAEY [RPL16A] | 1.7 ± 0.071
DVVYALKRQGRTLYGFG [HHF1] | 2.8 ± 0.11
DVYNRELDEHTTQIDLF [BRR2] | 2.73 ± 0.056
DWIRFVSTKTNEYRLAF [RPL22A] | 2.17 ± 0.045
DYITEAVFKIVLQPLLP [SNU114] | 1.31 ± 0.066
DYLKNIIVENSGTSGDE [RPN2] | 3.48 ± 0.15
DYNDVEVNSKKKNKRAL [BRR2] | 2.95 ± 0.07
DYPFTQLGYIENSFYKK [POP1] | 3.14 ± 0.17
DYQVQGLNWLISLHENK [ISW2] | 2.15 ± 0.058
DYVNKTNSHLPAGKQVE [FAS1] | 3.57 ± 0.24
EAAKPSLSFGSGSAGAN [YJL041W/NSP1] | 2.81 ± 0.13
EAEIECFDSTTGRDAGF [RRP40] | 3.12 ± 0.17
EAESQLRAAQQQWGNDF [FAS2] | 3.35 ± 0.063
EAESQWYIEKVIRIPMQ [CSI1] | 2.96 ± 0.24
EAKERYTDRDQDEVNKG [NNF1] | 3.28 ± 0.13
EAPAGNIDTITDAMTES [MCD1] | 3.04 ± 0.052

Sequence | protein stability index
EASNTPIEHQFNPYGDN [PRE7] | 3.33 ± 0.089
EATAASHERFFLSQGLH [CSN12] | 1.28 ± 0.1
EATLESKLKEEEAALLI [ESC2] | 3.05 ± 0.058
EATLLTNSNNGSSNNNT [SNF5] | 3.32 ± 0.13
EAVELVIGLDSEHDKKR [YML103C/NUP188] | 3.55 ± 0.15
EDALYLGKRSILAAAHR [PRE2] | 3.33 ± 0.06
EDFDVEHFSDEETYEEK [RPO26] | 3.05 ± 0.2
EDGLGPLMAKSVKKAGA [ARP7] | 3.48 ± 0.27
EDGMIIDVNLNFARQLL [RRP40] | 3.23 ± 0.074
EDKFLYGDGNGKGDNDN [SWI3] | 3.35 ± 0.16
EDLFDDYPSTSLDIRHD [NUT1] | 2.9 ± 0.077
EDLLHYIEEKHPTIYES [POP4] | 3.4 ± 0.093
EDTPANDSSATRSWRPP [RPB8] | 2.88 ± 0.18
EEAKEESDDDMGFGLFD [RPP1A] | 3.15 ± 0.061
EEARRKHVSGKILGFVY [RPS22A] | 2.67 ± 0.18
EEEEDTTTTANINEVKK [NUT1] | 3.39 ± 0.11
EEEVTDQLEDLREHFKN [QCR6] | 3.06 ± 0.083
EEISFSLSEGCDILVAT [PRP28] | 2.69 ± 0.06
EELKNMFLYILKHLEEM [RRI2] | 1.93 ± 0.11
EEQKSSDTSKPAFTFGA [YJL041W/NSP1] | 3.15 ± 0.06
EERSNNLLTPQPTNFTT [MCD1] | 3.11 ± 0.063
EETDDEDKQNIEINEDN [RRI2] | 3.25 ± 0.07
EEVVSNDEGVWDLVDER [PRP8] | 3.47 ± 0.057
EEYKKSLYAYCHSKLRG [GRR1] | 2.31 ± 0.07
